Results from patent US12599645B2, “Antibodies which bind to lysophosphatidic acid receptor 1 (LPAR1)” (DJS ANTIBODIES LTD, priority 2021, dated 2026).

Tests used:
LPAR1 [1] = molecular target: T1, LPAR1 (Homo sapiens, UniProt Q92633); experiment: LPAR1 binding affinity during discovery and affinity maturation, method not stated; set-up: expressed in transfected cells; settings: stated in words
LPAR1 [2] = molecular target: T1, LPAR1; experiment: Transient-transfection CIFAT, live cells; type: binding; set-up: HA; expressed in transfected cells; host or cells: CHO-K1 (transient, PEI); settings: 5 μg/mL or 20 μg/mL
Description: CHO-K1 cells are seeded in multi well plates at 20,000 cells per 200 μL full growth medium and incubated for 24 hours at 37° C. In a sterile tube, 0.0309 uL/well PEI is diluted into 10 uL/well transfection medium (DMEM supplemented with 2 mM L-glutamine and Penicillin-Streptomycin). The diluted PEI is added to 100 ng/well DNA, before mixing immediately and incubating the mixture for 10 minutes at room temperature. 200 μL/well full growth medium is added to the PEI-DNA mixture, then medium in wells is taken off and 200 ul full growth medium/PEI/DNA mixture is added in the wells of the adherent cell plate. The plate is incubated for 24 hours at 37° C. The medium is discarded and replaced with 200 μL full growth medium. The plate is incubated for 24 hours at 37° C. Medium is removed from the wells and the cells incubated with primary antibody at varying concentrations for 75 minutes at 37° C. After washing and cell fixation with 4% PFA, the binding of the antibodies is detected using a goat anti-human detection antibody, incubated for 1 hour at room temperature. Fluorescence at 488 nm is measured.
CHO-K1 cells were seeded in clear 96-well plates at 20,000 cells per 200 μL full growth medium and incubated for 24 hours at 37° C. The following day, in a sterile tube, 0.0309 uL/well PEI (Generon, MW 160,000) was diluted into 10 uL/well transfection medium (DMEM supplemented with 2 mM L-glutamine and Penicillin-Streptomycin). The diluted PEI was added to 100 ng/well DNA encoding the target protein (human LPAR1 (SEQ ID NO: 62) unless otherwise stated), before vortexing immediately and incubating the mixture for 10 minutes at room temperature. 200 μL/well full growth medium was added to the PEI-DNA mixture, then medium in wells was taken off and 200 ul full growth medium/PEI/DNA mixture was added in the wells of the adherent cell plate. The plate was incubated for 24 hours at 37° C. The next day, the medium was discarded and replaced with 200 μL full growth medium. The plate was incubated for 24 hours at 37° C. The following day, medium was removed from the wells and the cells incubated with primary antibody at varying concentrations for 75 minutes at 37° C. After washing and cell fixation with 4% PFA, the binding of the antibodies was detected using a goat anti-human Alexa Fluor 488 detection antibody (Invitrogen), incubated for 1 hour at room temperature. Fluorescence at 488 nm was measured using a BMG LABTECH ClarioStar plate reader and microscopy images were taken at 10× magnification.
(§1) Anti-LPAR1 antibodies of the invention were tested alongside commercially available anti-LPAR1 antibodies in the transient-transfection CIFAT assay for live cells (method 1.11) and in the transient-transfection CIFAT assay for fixed cells (method 1.11).

LPAR1 [3] = molecular target: T1, LPAR1; experiment: Transient-transfection CIFAT, fixed/permeabilised cells; type: binding; set-up: HA; expressed in transfected cells; host or cells: CHO-K1 (transient, PEI); settings: 5 μg/mL
Irrelevant GPCR = experiment: Transient-transfection CIFAT, irrelevant GPCR control (fixed and live cells); type: binding; settings: cells expressing irrelevant GPCR
Description: as §1
The results are shown in FIGS. 11 and 12, wherein the scale bar represents 100 μm.

[4] = set-up: species or system Sprague Dawley rats; settings: rat, in vivo, iv, 3 mg/kg
Description: The rat pharmacokinetics study was carried out in male Sprague Dawley rats (275-325 g). Rats received an IV slow bolus (3 mg/kg) of test antibody. Blood samples were taken at the following time-points: pre-dose, 2 min, 1 hour, 3 hours, 6 hours, 24 hours, 48 hours, 96 hours, 7 days, 14 days and 21 days after dosing. For each animal and for each blood sampling, 200 μL venous blood was obtained from the sublingual vein under isoflurane anaesthesia in K2EDTA vials. The blood samples were gently mixed, placed immediately on crushed ice and centrifuged within 30 min of sampling at approximately 1500×g for approximately 10 min at approximately 4° C. For each blood sample, the resulting plasma was separated into 2 aliquots of 30 μL and transferred, using disposable plastic material, into polypropylene tubes with conical bottom and stored at −80° C. until analysis by capture ELISA. Plates were coated overnight with 1 μg/mL capture IgG before washing and blocking with 3% (w/v) milk the next morning for 2 hours. […] Absorbance was measured on a plate reader at 450 nm. Antibody concentrations were calculated using interpolation off a standard curve constructed for each individual test IgG in Prism 5 (GraphPad Software, CA, USA). Interpolated data was analysed using Phoenix WinNonlin® version 8.1 (Certara USA, Inc., Princeton, NJ) to extract relevant PK parameters. […]

LPAR1 [5] = molecular target: T1, LPAR1; experiment: BRET assay (G protein activation and βArrestin 2 biosensors); type: cell-based; set-up: expressed in transfected cells; host or cells: HEK293 (transient, PEI); settings: G13 biosensor
Description: Using polyethylenimine (PEI) transfection agent at a 3:1 ratio, HEK293 cells were co-transfected in suspension with hLPAR1 and one of the following biosensors: G protein activation sensors (Gαi2, Gα13, and Gαq) and the βArrestin 2-PM recruitment biosensor (+GRK2). Cells were directly seeded in 96-well plates immediately following transfection at a density of 35,000 cells/well. 48 hours post-transfection, BRET experiments were performed in both agonist and allosteric/antagonist mode. Using a plate washer, culture medium was aspirated and replaced with 30 μl of Hank's Balanced Salt Solution buffer (HBSS). Plates were equilibrated at room temperature for 60 minutes. For agonist testing, serial dilutions of the antibodies were performed in PBS and then added to each well. Antibodies were assayed at 12 concentrations in technical duplicates. Small molecules were added to each relevant well. Small molecules were assayed at 22 concentrations with each biosensor. Cells were then incubated with the antibodies or small molecules at room temperature for 60 or 10 minutes, respectively. 10 μl of 10 μM e-Coelenterazine Prolume Purple (Nanolight) was then added to each well. Cells were incubated at room temperature for an additional 10 minutes. BRET readings were then collected with a 0.4 sec integration time on a plate reader (filters: 400 nm/70 nm, 515 nm/20 nm). For allosteric testing (after agonist testing), an EC75 of the endogenous ligand (oleoyl-LPA) was added to each well already containing antibody or small molecule. Cells were incubated at room temperature for an additional 10 minutes. BRET readings were then collected with a 0.4 sec integration time on a plate reader (filters: 400 nm/70 nm, 515 nm/20 nm). BRET signals were determined by calculating the ratio of light emitted by GFP-acceptor (515 nm) over light emitted by luciferase-donor (400 nm). All BRET ratios were standardized with pre-established BRET values for positive and negative controls. The standardized BRET ratio is referred to as universal BRET (uBRET). Resulting dose-response curves were fitted using the three- or four-parameter logistic non-linear regression model in GraphPad Prism 9.
The inhibition characteristics of Antibody 12 were investigated by Bioluminescence Resonance Energy Transfer (BRET, method 1.15) and compared to a small molecule LPAR1 inhibitor of the prior art (BMS-986020), see FIG. 13. The upper lines are values recorded with LPA present and the lower lines are values recorded with LPA not present. […] This can only happen if the ligand (LPA) is also interacting with the receptor at the same time to enable some signalling. […]

[6] = test system: renal fibrosis after UUO surgery; experiment: Unilateral ureteral obstruction (UUO) efficacy model of renal fibrosis; type: in vivo, Hartley guinea pigs; settings: Study 2
Description: Unilateral ureteral obstruction (UUO) is a well-characterized disease model for renal fibrosis. The UUO model encompasses key pathophysiological features of chronic kidney disease; tubular necrosis and inflammatory cell infiltration within a relatively short period.
Two unilateral ureteral obstruction (UUO) model efficacy studies were carried out in six-week old female Hartley guinea pigs. On Day 0, UUO surgery was performed. BMS-986020 was administered orally at a dose level of 30 mg/kg in a volume of 5 mL/kg twice daily at from Day −1 to 9. Isotype control and anti-LPAR1 antibody was intraperitoneally administered at a dose level of 6 mg/kg (low) or 20 mg/kg (high) in a volume of 10 mL/kg at Day −1, Day 0, Day 3 and Day 6. The viability, clinical signs, behaviour and individual body weight was monitored daily.
The animals were sacrificed at Day 10. The ligated left kidney and right kidney weight were measured at sacrifice.
Hydroxyproline is an amino acid, making up around 14% of collagen and acts as an important indicator of the severity of fibrosis. To quantify kidney hydroxyproline content, frozen posterior right section of left kidney samples were processed by an alkaline-acid hydrolysis method. AC buffer (2.2M acetic acid/0.48M citric acid) was added to the samples, followed by centrifugation to collect the supernatant. A standard curve of hydroxyproline was constructed with serial dilutions of trans-4-hydroxy-L-proline (Sigma-Aldrich, USA) starting at 16 μg/mL. The prepared samples and standards were mixed with chloramine T solution (Nacalai Tesque Inc., Japan) and incubated for 25 minutes at room temperature. The samples were then mixed with Ehrlich's solution and heated at 65° C. for 20 minutes to develop the colour. After samples were cooled on ice and centrifuged to remove precipitates, the optical density of each supernatant was measured at 560 nm. The concentrations of hydroxyproline were calculated from the hydroxyproline standard curve. Protein concentrations of kidney samples were determined using a BCA protein assay kit (Thermo Fisher Scientific, USA) and used to normalize the calculated hydroxyproline values. Kidney hydroxyproline contents were expressed as μg per mg protein.
The left kidney was fixed in Bouin's solution and embedded in paraffin. For PAS staining, sections were cut from paraffin blocks and stained with Schiff's reagent (FUJIFILM Wako pure chemical corporation, Japan) according to the manufacturer's instructions. To visualize collagen deposition, kidney sections were stained using picro-Sirius red solution (FUJIFILM Wako pure chemical corporation). For quantification of interstitial and medulla fibrosis area, bright field images in the corticomedullary region were captured using a digital camera (DFC295) at 200-fold magnification, and the positive areas in 5 fields/section were measured using ImageJ software (National Institute of Health, USA).

[7] = Dose range-finding toxicity study, liver histopathology; type: in vivo; settings: cynomolgus
Description: A dose range-finding study was carried out to determine the potential toxicity of Antibody 17 when given by the intravenous (infusion) route to cynomolgus monkeys. The test item, Antibody 17, was administered to 8 animals via intravenous infusion (30 minutes) on Day 1 (Group 1) or on Days 1, 8 and 15 (Groups 2 to 4). Animals were split by sex, allocated into 4 groups and dosed with Antibody 17 at 10, 33 or 100 mg/kg/day.
A complete gross pathological examination, organ weight recording and microscopic evaluation were performed on the six animals that were given 3 doses of Antibody 17 (Groups 2 to 4) two days after the third dose.

[8] = IV infusion, 10, 33 or 100 mg/kg/day

T1 sequence (Q92633 whole entry): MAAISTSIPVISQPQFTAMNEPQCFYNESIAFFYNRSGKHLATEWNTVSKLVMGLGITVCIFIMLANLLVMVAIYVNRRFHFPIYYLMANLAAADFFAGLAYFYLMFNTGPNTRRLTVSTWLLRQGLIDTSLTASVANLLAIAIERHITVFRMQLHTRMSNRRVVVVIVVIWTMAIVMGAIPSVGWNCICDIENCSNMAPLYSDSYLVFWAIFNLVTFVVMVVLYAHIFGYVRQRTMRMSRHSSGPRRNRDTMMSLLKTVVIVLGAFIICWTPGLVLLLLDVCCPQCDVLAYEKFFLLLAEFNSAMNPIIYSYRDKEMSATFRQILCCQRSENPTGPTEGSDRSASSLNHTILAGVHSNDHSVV

Molecule | binding affinity for LPAR1 (LPAR1 [1]) | LPAR1 live cell staining (LPAR1 [2]) | LPAR1 fixed cell staining (LPAR1 [3]) | Irrelevant GPCR cell staining (Irrelevant GPCR) | mean Cmax [4] [µg/mL] | mode of inhibition (LPAR1 [5]) | inhibition with LPA present compared to the system where LPA is absent (LPAR1 [5]; even at high concentrations) | histological picrosirius staining [6] | kidney hydroxyproline ([6]; BMS-986020 30 mg/kg oral vs vehicle, antibody 20 mg/kg (high) i.p. vs isotype antibody) | histopathology findings ([7]; 3 doses (Days 1, 8 and 15), two days after the third dose) | adverse effects throughout the study [7, 8] | tolerability at the injection sites [7, 8] | unscheduled deaths [7, 8]
Antibody 12: LCDR2 mutation T56D; VH SEQ ID NO: 36, VL SEQ ID NO: 38 (antibody, V domains shown) VH: QVQLVQSGSELKKPGASVKVSCKASGYTFTSSGISWVRQAPGQGLEWMGEILPRSGYTNYNQGFTGRFVFSADKSVSTAYLQISSLKAEDTAVYYCARDFKGGRYAMDYWGQGTTVTVSS VL: SIQMTQSPSSLSASVGDRVTITCQASQSVRYNVAWYQQKPGKAPKLLIYYASNRYDGVPSRFSGSGSGTDFTFTISSLQPEDIATYFCQHHYSSPLTFGGGTKLEIK | minimal effect on affinity | LPAR1-Significant fixed and live cell staining | LPAR1-Significant fixed and live cell staining | Irrelevant GPCR-No significant cell staining | 217.5 | acting allosterically | does not deliver equivalent inhibition |  |  |  |  |  | 
Antibody 17: Optimised antibody; VH SEQ ID NO: 102, VL SEQ ID NO: 99 (antibody, V domains shown) VH: QVQLVQSGSELKKPGASVKVSCKASGYTFTSSGISWVRQAPGQGLEWMGEIQPRSGYTNYNQGFTGRFVFSADKSVSTAYLQISSLKAEDTAVYYCARDKGPARYTMDYWGQGTTVTVSS VL: SIQMTQSPSSLSASVGDRVTITCQASQSVRYNVAWYQQKPGKAPKLLIYYASNRYEGVPSRFSGSGSGTDFTFTISSLQPEDIATYFCQHHYSSPLTFGGGTKLEIK |  |  |  |  | 143.8 |  |  | No observable difference | significant reduction in hydroxyproline | no adverse findings | No adverse effects | well tolerated | no unscheduled deaths
